From publication PMC314469, “Protein Interaction Networks by Proteome Peptide Scanning” (PLoS Biology, 2004)

Molecular target: T1, Yfr024 SH3 (LSB3_YEAST), P43603
T1 chain: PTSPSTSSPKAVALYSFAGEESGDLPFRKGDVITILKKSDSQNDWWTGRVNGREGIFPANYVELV
Test: SPOT array

Row | normalised SPOT signal, Boehringer light units (BLU); mean over the file's lines of this peptide | Binder
1 | 89.7 | PESAKSNPNSPRLK [YOR231W 8-21]
2 | 1150 | PEWRRPHPNIPDAK [YJR035W 269-282]
3 | 0 | PKSEKIEPLSPSFK [YJL172W 61-74]
4 | 197 | PIGSRYNPNLPVTE [YPR019W 677-690]
5 | 292 | PIRLRKRPPPPPPV [YIL156W 508-521]
6 | 64.6 | PIVKKNVPKPPPLV [YBR123C 400-413]
7 | 12.3 | PGGPKFEPLYPREE [YHR165C 347-360]
8 | 33.4 | PHFAKHSPDSPRTS [YER167W 325-338]
9 | 928 | PKHIRNEPVKPFRN [YHR037W 25-38]
10 | 624 | PFIRRYTPLKPITK [YKR093W 410-423]
11 | 268 | PDLNKRPPREPIEF [YDR195W 471-484]
12 | 12800 | PKKSRVLPPLPFPL [YER032W 884-897]
13 | 116 | PFLIKFTPKFPQSI [YMR156C 9-22]
14 | 69.3 | PELAKNSPLAPIKK [YLL021W 1081-1094]

These binders were tested against Sho1 SH3 (SHO1_YEAST), P40073 (assay: SPOT array).
Sho1 SH3 (SHO1_YEAST), P40073, sequence (P40073 295-366): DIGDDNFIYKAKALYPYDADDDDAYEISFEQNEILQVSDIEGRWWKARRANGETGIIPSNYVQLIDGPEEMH

Row | normalised SPOT signal, Boehringer light units (BLU); mean over the file's lines of this peptide | Binder
15 | 69.5 | PESAKSNPNSPRLK [YOR231W 8-21]
16 | 9.9 | PEWRRPHPNIPDAK [YJR035W 269-282]
17 | 84.8 | PKSEKIEPLSPSFK [YJL172W 61-74]
18 | 36.1 | PIGSRYNPNLPVTE [YPR019W 677-690]
19 | 98.1 | PIRLRKRPPPPPPV [YIL156W 508-521]
20 | 50.2 | PIVKKNVPKPPPLV [YBR123C 400-413]
21 | 40.6 | PGGPKFEPLYPREE [YHR165C 347-360]
22 | 25.1 | PHFAKHSPDSPRTS [YER167W 325-338]
23 | 46.8 | PKHIRNEPVKPFRN [YHR037W 25-38]
24 | 59 | PFIRRYTPLKPITK [YKR093W 410-423]
25 | 69.6 | PDLNKRPPREPIEF [YDR195W 471-484]
26 | 25000 | PKKSRVLPPLPFPL [YER032W 884-897]
27 | 97.2 | PFLIKFTPKFPQSI [YMR156C 9-22]
28 | 54.8 | PELAKNSPLAPIKK [YLL021W 1081-1094]

Molecular target: T2, Boi1 SH3 (BOI1_YEAST), P38041
T2 chain: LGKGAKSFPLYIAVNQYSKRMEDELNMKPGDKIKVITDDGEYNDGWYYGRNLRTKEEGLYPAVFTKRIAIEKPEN
Test: SPOT array

Row | normalised SPOT signal, Boehringer light units (BLU); mean over the file's lines of this peptide | Binder
29 | 618 | PESAKSNPNSPRLK [YOR231W 8-21]
30 | 1280 | PEWRRPHPNIPDAK [YJR035W 269-282]
31 | 536 | PKSEKIEPLSPSFK [YJL172W 61-74]
32 | 132 | PIGSRYNPNLPVTE [YPR019W 677-690]
33 | 6390 | PIRLRKRPPPPPPV [YIL156W 508-521]
34 | 262 | PIVKKNVPKPPPLV [YBR123C 400-413]
35 | 0 | PGGPKFEPLYPREE [YHR165C 347-360]
36 | 150 | PHFAKHSPDSPRTS [YER167W 325-338]
37 | 1660 | PKHIRNEPVKPFRN [YHR037W 25-38]
38 | 529 | PFIRRYTPLKPITK [YKR093W 410-423]
39 | 114 | PDLNKRPPREPIEF [YDR195W 471-484]
40 | 940 | PKKSRVLPPLPFPL [YER032W 884-897]
41 | 65 | PFLIKFTPKFPQSI [YMR156C 9-22]
42 | 685 | PELAKNSPLAPIKK [YLL021W 1081-1094]

Molecular target: T3, Yhr016c SH3 (YSC84_YEAST), P32793
T3 chain: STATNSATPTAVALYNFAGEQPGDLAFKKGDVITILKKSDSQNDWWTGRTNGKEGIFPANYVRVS
Test: SPOT array

Row | normalised SPOT signal, Boehringer light units (BLU); mean over the file's lines of this peptide | Binder
43 | 31.8 | PESAKSNPNSPRLK [YOR231W 8-21]
44 | 145 | PEWRRPHPNIPDAK [YJR035W 269-282]
45 | 0.1 | PKSEKIEPLSPSFK [YJL172W 61-74]
46 | 87.4 | PIGSRYNPNLPVTE [YPR019W 677-690]
47 | 25.6 | PIRLRKRPPPPPPV [YIL156W 508-521]
48 | 27.1 | PIVKKNVPKPPPLV [YBR123C 400-413]
49 | 16.9 | PGGPKFEPLYPREE [YHR165C 347-360]
50 | 27.4 | PHFAKHSPDSPRTS [YER167W 325-338]
51 | 59.8 | PKHIRNEPVKPFRN [YHR037W 25-38]
52 | 91.6 | PFIRRYTPLKPITK [YKR093W 410-423]
53 | 4.6 | PDLNKRPPREPIEF [YDR195W 471-484]
54 | 3660 | PKKSRVLPPLPFPL [YER032W 884-897]
55 | 27.7 | PFLIKFTPKFPQSI [YMR156C 9-22]
56 | 14.6 | PELAKNSPLAPIKK [YLL021W 1081-1094]

Molecular target: T4, Rvs167 SH3 (RV167_YEAST), P39743
T4 chain: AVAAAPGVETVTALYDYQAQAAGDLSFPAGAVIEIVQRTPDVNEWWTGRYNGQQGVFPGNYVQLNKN
Test: SPOT array

Row | normalised SPOT signal, Boehringer light units (BLU); mean over the file's lines of this peptide | Binder
57 | 80.9 | PESAKSNPNSPRLK [YOR231W 8-21]
58 | 94.1 | PEWRRPHPNIPDAK [YJR035W 269-282]
59 | 44.3 | PKSEKIEPLSPSFK [YJL172W 61-74]
60 | 95.7 | PIGSRYNPNLPVTE [YPR019W 677-690]
61 | 289 | PIRLRKRPPPPPPV [YIL156W 508-521]
62 | 33 | PIVKKNVPKPPPLV [YBR123C 400-413]
63 | 176 | PGGPKFEPLYPREE [YHR165C 347-360]
64 | 110 | PHFAKHSPDSPRTS [YER167W 325-338]
65 | 49.7 | PKHIRNEPVKPFRN [YHR037W 25-38]
66 | 585 | PFIRRYTPLKPITK [YKR093W 410-423]
67 | 27.8 | PDLNKRPPREPIEF [YDR195W 471-484]
68 | 18900 | PKKSRVLPPLPFPL [YER032W 884-897]
69 | 147 | PFLIKFTPKFPQSI [YMR156C 9-22]
70 | 31.5 | PELAKNSPLAPIKK [YLL021W 1081-1094]

Molecular target: T5, Boi2 SH3 (BOI2_YEAST), P39969
T5 chain: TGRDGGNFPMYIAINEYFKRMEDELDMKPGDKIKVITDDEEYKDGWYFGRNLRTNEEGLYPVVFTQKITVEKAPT
Test: SPOT array

Row | normalised SPOT signal, Boehringer light units (BLU); mean over the file's lines of this peptide | Binder
71 | 0 | PESAKSNPNSPRLK [YOR231W 8-21]
72 | 40.3 | PEWRRPHPNIPDAK [YJR035W 269-282]
73 | 7.7 | PKSEKIEPLSPSFK [YJL172W 61-74]
74 | 148 | PIGSRYNPNLPVTE [YPR019W 677-690]
75 | 39.2 | PIRLRKRPPPPPPV [YIL156W 508-521]
76 | 167 | PIVKKNVPKPPPLV [YBR123C 400-413]
77 | 16.6 | PGGPKFEPLYPREE [YHR165C 347-360]
78 | 11 | PHFAKHSPDSPRTS [YER167W 325-338]
79 | 0 | PKHIRNEPVKPFRN [YHR037W 25-38]
80 | 67.8 | PFIRRYTPLKPITK [YKR093W 410-423]
81 | 10.6 | PDLNKRPPREPIEF [YDR195W 471-484]
82 | 16.2 | PKKSRVLPPLPFPL [YER032W 884-897]
83 | 0 | PFLIKFTPKFPQSI [YMR156C 9-22]
84 | 0 | PELAKNSPLAPIKK [YLL021W 1081-1094]

Molecular target: T6, Myo5 SH3 (MYO5_YEAST), Q04439
T6 chain: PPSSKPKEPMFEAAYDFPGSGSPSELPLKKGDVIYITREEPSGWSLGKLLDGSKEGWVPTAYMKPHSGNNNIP
Test: SPOT array

Row | normalised SPOT signal, Boehringer light units (BLU); mean over the file's lines of this peptide | Binder
85 | 253 | PESAKSNPNSPRLK [YOR231W 8-21]
86 | 183 | PEWRRPHPNIPDAK [YJR035W 269-282]
87 | 116 | PKSEKIEPLSPSFK [YJL172W 61-74]
88 | 187 | PIGSRYNPNLPVTE [YPR019W 677-690]
89 | 60300 | PIRLRKRPPPPPPV [YIL156W 508-521]
90 | 154 | PIVKKNVPKPPPLV [YBR123C 400-413]
91 | 90 | PGGPKFEPLYPREE [YHR165C 347-360]
92 | 236 | PHFAKHSPDSPRTS [YER167W 325-338]
93 | 361 | PKHIRNEPVKPFRN [YHR037W 25-38]
94 | 649 | PFIRRYTPLKPITK [YKR093W 410-423]
95 | 192 | PDLNKRPPREPIEF [YDR195W 471-484]
96 | 3590 | PKKSRVLPPLPFPL [YER032W 884-897]
97 | 974 | PFLIKFTPKFPQSI [YMR156C 9-22]
98 | 125 | PELAKNSPLAPIKK [YLL021W 1081-1094]
